From paper PMC8131360, “Phospholipid translocation captured in a bifunctional membrane protein MprF” (Nature Communications, 2021) come the findings set out here.

The series concerns the molecule itself. As to the kind of experiment: cryo-EM structure; full-length RtMprF purified in β-DDM or GDN, reconstituted with POPG and MSP1E3D1 (1:2:100) in lipid nanodiscs; 20 mM Tris-HCl pH 7.5, 300 mM NaCl; single-particle analysis, C2 symmetry imposed.

B1: Multiple Peptide Resistance Factor from Rhizobium tropici (RtMprF) (natural protein, UniProt A0A6P1C618 1-869, looked up)
chain: MSSPIDLESADEELEERGGIVGLLNRYRALIVAVLTVAVFCIAAYAIYDLTTEVRYDDVVHALTTTKISSVLLALLFTGLSFASLIFYDQNALEYIGKRLPFPHVALTSFSAYAVGNTAGFGALSAGAIRYRAYTRLGLSPDDITRVIAFVTLAFGLGLASVGAMALLVIADEIGPLISVDGLWLRLIAIAILAALAFVVYAGRNGREVRIGPVAVRLPDSRTWSRQFLVTAFDIAASASVLYVLLPETSIGWPGFFAIYAIAVGLGVLSHVPAGFGVFETIIIAWLGSSVNEDAVLSSLVLYRVIYNVIPLVIAIAAISVAELRRFVDHPVASSMRRIGARLMPQLLSAFALLLGMMLVFSSVTPTPDHNLIVLSDYLPLSLVESAHFLSSLLGLAIIVAARGLSQRLDGAWWVSTFSALFALFFSLLKAIAIVEAGLLAFFVFSLVVSRRLFKRPASLLNQTLTAGWLTAIAVVCIGAIVVLFFVYRDVGYSNELWWQFEFADEAPRGLRAALGISIVSSAIAIFSLLRPATKRPEPVSDDAVARAVEIVRKQGVADANLVRMGDKSIMFSEKGDAFIMYGKQGRSWIALFDPVGPRQALPDLIWRFVETARAAGCRSVFYQISPALLSYCADAGLRAFKLGELAVVNLANFELKGGKWANLRQTASRAVRDGLEFAVIEPQDIPDVLDQLAHVSDTWLADHNAKEKSFSLGAFDPDYVCSQPVGVLKKDGKIVAFANILMTETKEEGSVDLMRFSPDAPKGSMDFLFVQILEYLKGEGFQRFNLGMAPLSGMSRRESAPVWDRVGGTVFEHGERFYNFKGLRAFKSKFHPEWQPRYLAVSGGVSPMIALMDATFLIGGGLKGVVRK
notes: MprF (mprF gene) from Rhizobium tropici, full-length protein of 869 amino acid residues; flippase domain (Subdomain 1 Leu24-Arg325, Subdomain 2 Ser334-Arg530) and synthase domain (Pro539-Gly860); also called RtMprF(DDM); RtMprF(GDN); source: E. coli C41(DE3), pET21b; purified (Ni-NTA in β-DDM or GDN) and reconstituted in POPG/MSP1E3D1 nanodiscs (Ni-NTA, SEC); also unpurified, in the E. coli …
For B1, the “stoichiometry N” value amounted to 2.

Usually stoichiometry N stands for a count of units in the complex or per binding partner.
